± gives the standard deviation of the averaged measurements.
System: ATP
Test: switch fluorescence ratio, 500 uM ATP over buffer (Cy3 cluster intensity, sum of 5 cycles each) (fold (ratio)); higher = stronger signal-on switching upon ATP binding; sequences stand for … in TCGTCGGCAGCGTCAGATGTGTATAAGAGACAGTTTTTTTTTTTTTTTTTTTTTTTTT…TC
Conditions: aptamer strand: ATP DNA aptamer (quencher-CACCTGGGGGAGTATTGCGGAGGAAGG + anchor), 100 nM annealed; ATP concentration: 500 uM
In short: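 After annealing to 100 nM quencher-labelled ATP aptamer, Cy3-labelled switching-strand clusters on a modified Illumina MiSeq flow-cell were imaged in selection buffer. A second image followed after 15 min with 500 uM ATP at 22 °C, and five such buffer/ATP cycles were done, each separated by NaOH stripping and re-annealing. The fluorescence ratio, averaged per switch-domain sequence, is summed target-cycle over summed buffer-cycle Cy3 intensity per cluster, with clusters outside 100-1000 RFU excluded.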
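Further: ATP exposure 15 min at 22 °C before imaging.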

TTTGCGGTCA gave a switch fluorescence ratio of 1.021 ± 0.0091.

Work on TTTGCGTTCA yielded a switch fluorescence ratio of 1.02 ± 0.078.

Sequence TTTGCTACTG has a switch fluorescence ratio of 1.052 ± 0.0096.

TTTGCTCGGG showed a switch fluorescence ratio of 1.003 ± 0.002.

Sequence TTTGCTGCGG has a switch fluorescence ratio of 1.03 ± 0.041.

With TTTGCTGGCG the switch fluorescence ratio was 0.935 ± 0.024.

With TTTGCTTGGT the switch fluorescence ratio was 0.994 ± 0.03.

TTTGGAAAAA gave a switch fluorescence ratio of 0.996 ± 0.032.

In the case of TTTGGAAAAC, the switch fluorescence ratio is reported as 0.9853 ± 0.0027.

In the case of TTTGGAAATT, the switch fluorescence ratio is reported as 1.43 ± 0.61.

In the case of TTTGGAAGCC, the switch fluorescence ratio is reported as 1 ± 0.041.

For TTTGGAATAG, the switch fluorescence ratio was 1.06 ± 0.045.

Sequence TTTGGAATAT has a switch fluorescence ratio of 1.04 ± 0.013.

For TTTGGACAGT, the switch fluorescence ratio was 0.978 ± 0.03.

In the case of TTTGGAGGTG, the switch fluorescence ratio is reported as 1.04 ± 0.024.

TTTGGATGCG was tested, and the switch fluorescence ratio was 1.01 ± 0.077.

Sequence TTTGGATTGG has a switch fluorescence ratio of 0.967 ± 0.023.

For TTTGGATTTA, the switch fluorescence ratio was 1.03 ± 0.057.

With TTTGGATTTC the switch fluorescence ratio was 1 ± 0.013.

TTTGGCCTAG showed a switch fluorescence ratio of 1.02 ± 0.041.

In the case of TTTGGCGGAG, the switch fluorescence ratio is reported as 0.992 ± 0.03.

For TTTGGCTAAA, the switch fluorescence ratio was 1 ± 0.044.

With TTTGGCTGTT the switch fluorescence ratio was 0.998 ± 0.029.

Work on TTTGGCTTAA yielded a switch fluorescence ratio of 0.9962 ± 0.006.

In the case of TTTGGCTTTG, the switch fluorescence ratio is reported as 1.02 ± 0.05.

Work on TTTGGGATCG yielded a switch fluorescence ratio of 0.98 ± 0.045.

TTTGGGATCT gave a switch fluorescence ratio of 0.9881 ± 0.0098.

In the case of TTTGGGATTG, the switch fluorescence ratio is reported as 1.07 ± 0.015.

TTTGGGCGAG showed a switch fluorescence ratio of 0.976 ± 0.045.

TTTGGGCTTC showed a switch fluorescence ratio of 1.0067 ± 0.00097.

With TTTGGGGAAG the switch fluorescence ratio was 1.01 ± 0.025.

For TTTGGGGAGG, the switch fluorescence ratio was 1.02 ± 0.058.

For TTTGGGGCAT, the switch fluorescence ratio was 1.032 ± 0.0027.

For TTTGGGGGAT, the switch fluorescence ratio was 1.02 ± 0.1.

For TTTGGGGGGA, the switch fluorescence ratio was 1.05 ± 0.21.

With TTTGGGGGGT the switch fluorescence ratio was 0.985 ± 0.02.

TTTGGGGGTA was tested, and the switch fluorescence ratio was 1.06 ± 0.068.

Sequence TTTGGGGGTC has a switch fluorescence ratio of 1.1 ± 0.24.

With TTTGGGGTCC the switch fluorescence ratio was 1.07 ± 0.1.

For TTTGGGGTCG, the switch fluorescence ratio was 0.992 ± 0.034.

For TTTGGGGTTT, the switch fluorescence ratio was 1.07 ± 0.24.

Work on TTTGGGTATT yielded a switch fluorescence ratio of 0.9684 ± 0.0013.

TTTGGGTCTC showed a switch fluorescence ratio of 0.998 ± 0.019.

TTTGGGTGGA was tested, and the switch fluorescence ratio was 1.02 ± 0.05.

Work on TTTGGGTTAC yielded a switch fluorescence ratio of 1.04 ± 0.044.

In the case of TTTGGGTTCA, the switch fluorescence ratio is reported as 0.972 ± 0.026.

TTTGGGTTCC was tested, and the switch fluorescence ratio was 1.44 ± 0.35.

Work on TTTGGTCATA yielded a switch fluorescence ratio of 0.983 ± 0.024.

In the case of TTTGGTCGC, the switch fluorescence ratio is reported as 0.9851 ± 0.0012.

TTTGGTGACG was tested, and the switch fluorescence ratio was 1.09 ± 0.029.

TTTGGTGTCT gave a switch fluorescence ratio of 0.96 ± 0.025.

TTTGGTTAAT showed a switch fluorescence ratio of 0.959 ± 0.027.

For TTTGGTTAGT, the switch fluorescence ratio was 0.991 ± 0.023.

With TTTGGTTGAA the switch fluorescence ratio was 1.03 ± 0.088.

For TTTGGTTGAC, the switch fluorescence ratio was 1.02 ± 0.053.

TTTGGTTTGG was tested, and the switch fluorescence ratio was 1.01 ± 0.036.

Work on TTTGTAAAAT yielded a switch fluorescence ratio of 0.99 ± 0.021.

TTTGTACAAC showed a switch fluorescence ratio of 1.01 ± 0.05.

TTTGTACCGT showed a switch fluorescence ratio of 1.06 ± 0.1.

For TTTGTACTTC, the switch fluorescence ratio was 1.02 ± 0.049.

Work on TTTGTATATT yielded a switch fluorescence ratio of 1.01 ± 0.053.

Work on TTTGTATGGA yielded a switch fluorescence ratio of 0.973 ± 0.011.

TTTGTATTGG gave a switch fluorescence ratio of 0.998 ± 0.035.

In the case of TTTGTCAGAC, the switch fluorescence ratio is reported as 1.03 ± 0.054.

TTTGTCATTC gave a switch fluorescence ratio of 1 ± 0.0017.

For TTTGTCATTT, the switch fluorescence ratio was 0.98 ± 0.016.

For TTTGTCCTTT, the switch fluorescence ratio was 1.029 ± 0.0084.

For TTTGTCGCCG, the switch fluorescence ratio was 1.01 ± 0.029.

With TTTGTCGTAA the switch fluorescence ratio was 0.999 ± 0.0014.

Work on TTTGTCTAGG yielded a switch fluorescence ratio of 0.994 ± 0.019.

With TTTGTGACAG the switch fluorescence ratio was 1.02 ± 0.018.

For TTTGTGAGGA, the switch fluorescence ratio was 0.996 ± 0.034.

Sequence TTTGTGATTA has a switch fluorescence ratio of 0.9954 ± 0.0093.

In the case of TTTGTGGATG, the switch fluorescence ratio is reported as 0.985 ± 0.03.

TTTGTGGCTA was tested, and the switch fluorescence ratio was 1.03 ± 0.031.

TTTGTGGGGG was tested, and the switch fluorescence ratio was 1.01 ± 0.041.

TTTGTGGTCT gave a switch fluorescence ratio of 0.991 ± 0.032.

TTTGTGTTG was tested, and the switch fluorescence ratio was 0.977 ± 0.024.

With TTTGTGTTGT the switch fluorescence ratio was 1.015 ± 0.0099.

For TTTGTTAAGC, the switch fluorescence ratio was 0.973 ± 0.061.

For TTTGTTAGA, the switch fluorescence ratio was 0.988 ± 0.012.

With TTTGTTAGCA the switch fluorescence ratio was 0.98708 ± 0.0008.

With TTTGTTAGGC the switch fluorescence ratio was 0.991 ± 0.029.

Work on TTTGTTAGGG yielded a switch fluorescence ratio of 0.994 ± 0.022.

In the case of TTTGTTCACT, the switch fluorescence ratio is reported as 0.989 ± 0.041.

TTTGTTCATT gave a switch fluorescence ratio of 0.953 ± 0.019.

TTTGTTCGGT gave a switch fluorescence ratio of 1.01 ± 0.013.

Work on TTTGTTCTT yielded a switch fluorescence ratio of 1 ± 0.014.

Sequence TTTGTTGCA has a switch fluorescence ratio of 1.02 ± 0.011.

TTTGTTGGCA showed a switch fluorescence ratio of 0.986 ± 0.024.

In the case of TTTGTTTATC, the switch fluorescence ratio is reported as 1.02 ± 0.057.

With TTTGTTTCGA the switch fluorescence ratio was 1.05 ± 0.11.

With TTTGTTTGG the switch fluorescence ratio was 1 ± 0.017.

In the case of TTTGTTTGGA, the switch fluorescence ratio is reported as 1.01 ± 0.046.

TTTGTTTTAC showed a switch fluorescence ratio of 1.18 ± 0.21.

TTTGTTTTTA gave a switch fluorescence ratio of 1.02 ± 0.041.

Sequence TTTGTTTTTG has a switch fluorescence ratio of 1 ± 0.026.

For TTTTAAAAGT, the switch fluorescence ratio was 1 ± 0.03.

For TTTTAAAGGT, the switch fluorescence ratio was 1.01 ± 0.024.

TTTTAAATGC showed a switch fluorescence ratio of 1.07 ± 0.13.

Work on TTTTAAATGG yielded a switch fluorescence ratio of 1.06 ± 0.052.

Sequence TTTTAACCGA has a switch fluorescence ratio of 1.08 ± 0.034.

TTTTAACTAA was tested, and the switch fluorescence ratio was 1.005 ± 0.0046.

In the case of TTTTAAGAGG, the switch fluorescence ratio is reported as 1.01 ± 0.046.

TTTTAAGGCA was tested, and the switch fluorescence ratio was 1.03 ± 0.031.

For TTTTAAGGTA, the switch fluorescence ratio was 0.996 ± 0.026.

TTTTAAGGTC showed a switch fluorescence ratio of 1.019 ± 0.0034.

For TTTTAAGTCT, the switch fluorescence ratio was 1.02 ± 0.0036.

With TTTTAAGTGG the switch fluorescence ratio was 0.991 ± 0.023.

Sequence TTTTAAGTGT has a switch fluorescence ratio of 1 ± 0.045.

Work on TTTTAATCCA yielded a switch fluorescence ratio of 1.01 ± 0.033.

TTTTAATGCA was tested, and the switch fluorescence ratio was 0.977 ± 0.018.

TTTTAATTTC gave a switch fluorescence ratio of 0.955 ± 0.14.

Sequence TTTTACCCGT has a switch fluorescence ratio of 1.01 ± 0.013.

TTTTACCGTT showed a switch fluorescence ratio of 1.02 ± 0.015.

Work on TTTTACGATG yielded a switch fluorescence ratio of 1 ± 0.012.

For TTTTACGTGG, the switch fluorescence ratio was 0.9938 ± 0.0019.

With TTTTACGTTA the switch fluorescence ratio was 1.23 ± 0.11.

Work on TTTTACGTTT yielded a switch fluorescence ratio of 1.04 ± 0.12.

TTTTACTTCT showed a switch fluorescence ratio of 1.04 ± 0.062.

TTTTAGAAAT showed a switch fluorescence ratio of 1.98 ± 1.3.

With TTTTAGAAGG the switch fluorescence ratio was 0.9797 ± 0.0062.

TTTTAGAGTA gave a switch fluorescence ratio of 1.003 ± 0.009.

TTTTAGATAG was tested, and the switch fluorescence ratio was 1.06 ± 0.11.

TTTTAGATGG gave a switch fluorescence ratio of 1.2 ± 0.2.

TTTTAGCTGG gave a switch fluorescence ratio of 1 ± 0.015.

With TTTTAGGGTA the switch fluorescence ratio was 1.03 ± 0.017.

TTTTAGGTAG gave a switch fluorescence ratio of 0.99 ± 0.0029.

In the case of TTTTAGGTGT, the switch fluorescence ratio is reported as 1.28 ± 0.26.

Sequence TTTTAGTACT has a switch fluorescence ratio of 0.99 ± 0.036.

TTTTAGTAGT was tested, and the switch fluorescence ratio was 1.008 ± 0.01.

TTTTAGTTCC gave a switch fluorescence ratio of 1.05 ± 0.018.

TTTTAGTTCT showed a switch fluorescence ratio of 1.25 ± 0.42.

In the case of TTTTAGTTGG, the switch fluorescence ratio is reported as 0.954 ± 0.038.

TTTTAGTTTT was tested, and the switch fluorescence ratio was 1 ± 0.031.

TTTTATAATG showed a switch fluorescence ratio of 1.038 ± 0.0011.

Sequence TTTTATAT has a switch fluorescence ratio of 0.98 ± 0.03.

For TTTTATATAC, the switch fluorescence ratio was 1.14 ± 0.076.

Sequence TTTTATATGT has a switch fluorescence ratio of 1.02 ± 0.028.

With TTTTATCAAT the switch fluorescence ratio was 1.003 ± 0.0076.

Sequence TTTTATCTGT has a switch fluorescence ratio of 1.01 ± 0.091.

With TTTTATGAAA the switch fluorescence ratio was 0.997 ± 0.012.

Work on TTTTATGAAG yielded a switch fluorescence ratio of 1.04 ± 0.02.

TTTTATGCGA gave a switch fluorescence ratio of 1.01 ± 0.02.

TTTTATGGGC was tested, and the switch fluorescence ratio was 1.01 ± 0.025.

TTTTATGTCA showed a switch fluorescence ratio of 1.03 ± 0.051.

TTTTATTTTT was tested, and the switch fluorescence ratio was 0.997 ± 0.028.

Work on TTTTCAACAC yielded a switch fluorescence ratio of 1.04 ± 0.033.

TTTTCAAGTA gave a switch fluorescence ratio of 0.9789 ± 0.0094.

In the case of TTTTCAAGTC, the switch fluorescence ratio is reported as 1.05 ± 0.15.

In the case of TTTTCACTGG, the switch fluorescence ratio is reported as 1.01 ± 0.017.

TTTTCAGTAG showed a switch fluorescence ratio of 0.9996 ± 0.0039.

TTTTCATCGC showed a switch fluorescence ratio of 1.18 ± 0.18.

TTTTCATGAT showed a switch fluorescence ratio of 0.991 ± 0.022.

TTTTCATGGT gave a switch fluorescence ratio of 1.01 ± 0.035.

TTTTCATGTG was tested, and the switch fluorescence ratio was 0.995 ± 0.027.

For TTTTCATTAC, the switch fluorescence ratio was 1.26 ± 0.069.
